In patent US8455427B2, “Methods of modifying insulin signaling using biliverdin reductase” (University of Rochester, priority 2005, dated 2013):

B1: biliverdin reductase (protein)
chain: MNAEPERKFGVVVVGVGRAGSVRMRDLRNPHPSSAFLNLIGFVSRRELGSIDGVQQISLEDALSSQEVEVAYICSESSSHEDYIRQFLNAGKHVLVEYPMTLSLAAAQELWELAEQKGKVLHEEHVELLMEEFAFLKKEVVGKDLLKGSLLFTSDPLEEDRFGFPAFSGISRLTWLVSLFGELSLVSATLEERKEDQYMKMTVCLETEKKSPLSWIEEKGPGLKRNRYLSFHFKSGSLENVPNVGVNKNIFLKDQNIFVQKLLGQFSEKELAAEKKRILHCLGLAEEIQKYCCSRK
modifications: left off: a dimerising Fc or GST
B2: Y^198: human BVR point mutant, DQYMK to DQFMK (protein, UniProt P53004 3-296, looked up, variant Y198F)
Biliverdin reductase A: AEPERKFGVVVVGVGRAGSVRMRDLRNPHPSSAFLNLIGFVSRRELGSIDGVQQISLEDALSSQEVEVAYICSESSSHEDYIRQFLNAGKHVLVEYPMTLSLAAAQELWELAEQKGKVLHEEHVELLMEEFAFLKKEVVGKDLLKGSLLFTAGPLEEERFGFPAFSGISRLTWLVSLFGELSLVSATLEERKEDQFMKMTVCLETEKKSPLSWIEEKGPGLKRNRYLSFHFKSGSLENVPNVGVNKNIFLKDQNIFVQKLLGQFSEKELAAEKKRILHCLGLAEEIQKYCCSRK

What was measured:
BVR in 293A cells [1] = experiment: BVR reductase activity in insulin-treated 293A cells; type: cell-based, human; settings: insulin 50 nM
Experimental: (§1) Cell culture and transfection and infection of 293A: 293A cells were grown in 10 cm-plates with Dulbecco's Modified Eagle Medium (DMEM) (Invitrogen, Carlsbad, Calif.) containing 10% fetal bovine serum and 1% penicillin-G/streptomycin for 24 h or until a confluency of 70% was reached. Cells were subsequently transfected with 4 μg of pcDNA3 mutant BVR Y^198 using Transfectin Lipid Reagent (Bio-Rad, Hercules, Calif.), according to the manufacturer's procedure and incubated for 48 h at 37° C. In addition, non-transfected cells were infected with pSuper-Retro-siBVR for 24 h in the presence of 4 μg/ml polybrene. Cells were starved in serum-free DMEM 16 h prior to insulin treatment (50 nM).
(§2) Measurement of BVR Reductase Activity: 293A cells treated with insulin were lysed in buffer containing a protease inhibitor cocktail and phosphatase inhibitors (10 mM NaF, […]). BVR activity was measured at pH 6.7 using NADH as the cofactor as described previously (Huang et al., J. Biol. Chem. 264:7844-9 (1989), which is hereby incorporated by reference in its entirety). The rate of conversion of biliverdin to bilirubin was determined as the increase in absorbance at 450 nm at 25° C. Specific activity is expressed as μmol of bilirubin/min/mg of protein.

BVR in 293A cells [2] = experiment: BVR tyrosine phosphorylation in insulin-treated 293A cells (immunoprecipitation and immunoblotting); type: cell-based, human; settings: within 8 min after insulin treatment
Experimental: as §1
Immunoprecipitation and immunoblotting: 293A Cells were plated in 10 cm plates and transfected with appropriate plasmids. Prior to collection, cells were washed twice with cold PBS and lysed in 300 μl cold modified RIPA buffer containing 50 mM Tris (pH7.4), 75 mM NaCl, 2 mM EDTA, 2 mM EGTA, 10 mM NaF, 1% Nonidet P-40, 0.5% sodium deoxycholate, 0.5% sodium vanadate, 1 mM PMSF, 10 μg/ml aprotinin, 1 mM benzamidine, 10 μg/ml leupeptine, and 10 μg/ml pepstatin. Cells sonicated (2×3 sec each) and centrifuged at 10,000×g for 15 min. Protein concentration was determined by Bradford assay (Bio-Rad, Hercules, Calif.). […]

[3] = molecular target: T1, insulin receptor tyrosine kinase (IRK) (Homo sapiens, UniProt P06213); experiment: BVR phosphorylation by the insulin receptor tyrosine kinase (IRK), in vitro [32P]-ATP assay; type: biochemical; settings: for time course of phosphorylation by IRK: incubation with IRK up to 3-4 h, pH 8.0
T1 construct: the 48 kDa cytoplasmic domain of the β-subunit of IRK; purchased Biomol International (Plymouth, Pa.)
T1 sequence (P06213 980-1382 limits assumed): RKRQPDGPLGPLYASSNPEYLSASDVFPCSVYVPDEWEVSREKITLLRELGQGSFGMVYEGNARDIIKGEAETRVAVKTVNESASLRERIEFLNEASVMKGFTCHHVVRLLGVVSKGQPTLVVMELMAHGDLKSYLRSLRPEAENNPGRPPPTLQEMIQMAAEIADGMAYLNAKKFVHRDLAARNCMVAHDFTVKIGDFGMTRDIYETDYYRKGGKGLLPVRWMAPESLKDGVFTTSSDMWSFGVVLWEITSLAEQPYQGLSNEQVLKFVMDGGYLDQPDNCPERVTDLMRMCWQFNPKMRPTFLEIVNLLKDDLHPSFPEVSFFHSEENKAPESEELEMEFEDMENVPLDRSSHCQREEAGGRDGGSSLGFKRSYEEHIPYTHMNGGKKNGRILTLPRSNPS
Experimental: BVR phosphoiylation by the insulin receptor tyrosine kinase (IRK): Phosphorylation of BVR by IRK was examined using GST-HBVR fusion protein and the 48 kDa cytoplasmic domain of the β-subunit of IRK. BVR (5 μg) was incubated in 50 μl of IRK kinase buffer containing 50 mM HEPES (pH 8.0), 20 mM MgCl2, 1 mM DTT in the presence of 0.05 μg IRK and 10 μM ATP labeled with 10 μCi [γ-^32P]-ATP. The reaction was started with the addition of labeled ATP and incubated for 2-4 h. Reactions were terminated by addition of Laemmli sample buffer and boiled for 3 min. Samples were subjected to 8% SDS-PAGE and transferred to PVDF membranes for autoradiography.

[4] = Reductase activity of purified BVR; type: biochemical, human; settings: purified BVR not phosphorylated by IRK
Experimental: as §2

293A cells = experiment: Insulin-mediated glucose uptake (2-deoxy 1-[3H] glucose); type: cell-based, human; settings: insulin 15 min, vs controls infected with vector alone, p≦0.05
Experimental: as §1
Glucose uptake: Glucose uptake was assessed by measuring 2-deoxy 1-[^3H] glucose (2DG) absorption as described by (Braiman et al. (Mol. Endocrinol. 13:2002-12 (1999)), which is hereby incorporated by reference), with minor modifications. Briefly, after insulin treatment, cells in 6-wells plates were incubated in 1 ml PBS containing 5 mM glucose and 1 μCi/ml 2DG for 15 min. Solution was aspirated rapidly and wells were washed 3 times with cold PBS. Cells were solubilized by addition of 200 μl 1% (w/v) SDS. Radioactivity was measured and data was normalized to protein concentration. Non-specific uptake was determined in the presence of 200 mM of glucose and was subtracted from the total uptake. […]

human BVR = experiment: BVR autophosphorylation; type: biochemical; settings: pH 8.4, 30 mM MnCl2, 2 h, 30° C.
Experimental: BVR autophosphorylation and kinase activity: To detect autophosphorylation of BVR, GST-hBVR of wild type (wt) and mutant variants were incubated in 50 mM HEPES buffer (pH 8.4) in the presence of 30 mM MnCl2 and 1 mM DTT for 2 h at 30° C. The reaction was started with the addition of 10 μM ATP labeled with 10 μCi [γ-^32P]-ATP and was stopped with the addition of Laemmli sample buffer. Samples were boiled for 3 min and applied to a 8% SDS-PAGE gels, transferred to a PVDF membrane, and then visualized by autoradiography. To measure kinase activity, GST-BVR (5 μg) was incubated in 50 μl kinase buffer containing 50 mM HEPES buffer (pH 8.4), 20 mM MgCl2, 30 mM MnCl2, 1 mM DTT and 10 μM ATP labeled with 10 μCi [γ-^32P]-ATP in the presence of 5 μg substrates: IRS-1 or Raytide or poly glu/tyr (4:1) for 2 h at 30° C. The reaction was started with the addition of ATP and terminated by adding 120 μl 10% H3PO4. 100 μl aliquots were directly transferred to P81 Whatman filters which were subsequently washed extensively in 0.75% phosphoric acid at room temperature. Finally, the filters were submerged in acetone for 5 min, dried, and retained counts were measured using a Beckman LS 6500 liquid scintillation counter (Beckman Coulter, Fullerton, Calif.).

| Molecule | increase in BVR reductase activity (BVR in 293A cells [1]; 1 h after treatment) | BVR reductase activity, later time (BVR in 293A cells [1]; 6 h after treatment) | BVR tyrosine phosphorylation (BVR in 293A cells [2]) | time course of phosphorylation by IRK [3] | BVR reductase activity of the control [4] | decrease of BVR phosphorylation by IRK caused by point mutation ([3]; mutant vs wtBVR, IRK 2 h at 30° C.) | insulin-mediated glucose uptake (293A cells) | autophosphorylation of BVR mutants (human BVR) |
| --- | --- | --- | --- | --- | --- | --- | --- | --- |
| insulin: Human insulin purchased from Sigma-Aldrich | 2 fold | gradually returned to basal level | dramatic increase in phosphorylation | – | – | – | – | – |
| B1 | – | – | – | detected when assessed at 1 h, and gradually increased up to 4 h | 43.8 μmol per min per mg | – | – | – |
| B2 | – | – | – | less effective substrate for IRK | – | ~70% | increased significantly | did not result in significant changes in autophosphorylation of BVR |
